# Reference: patent publication US10124035B2, “DISC-1 pathway activators in the control of neurogenesis” (Massachusetts Institute of Technology, priority 2008, dated 2018)
# “Also recorded” adds a separate entry of the source.
# Tests used:
# GSK3β = target: T1, GSK3β (Homo sapiens, UniProt P49841); assay: GSK3β in vitro kinase assay (β-catenin/axin phosphorylation, Y216 autophosphorylation); assay type: biochemical; conditions: for inhibition of GSK3β activity by DISC1 fragments: no single concentration, dose dependence, rank
# T1 construct: GST; purchased Active Motif (Carlsbad, Calif.)
# T1 sequence (P49841 whole entry, the tested form may be a part): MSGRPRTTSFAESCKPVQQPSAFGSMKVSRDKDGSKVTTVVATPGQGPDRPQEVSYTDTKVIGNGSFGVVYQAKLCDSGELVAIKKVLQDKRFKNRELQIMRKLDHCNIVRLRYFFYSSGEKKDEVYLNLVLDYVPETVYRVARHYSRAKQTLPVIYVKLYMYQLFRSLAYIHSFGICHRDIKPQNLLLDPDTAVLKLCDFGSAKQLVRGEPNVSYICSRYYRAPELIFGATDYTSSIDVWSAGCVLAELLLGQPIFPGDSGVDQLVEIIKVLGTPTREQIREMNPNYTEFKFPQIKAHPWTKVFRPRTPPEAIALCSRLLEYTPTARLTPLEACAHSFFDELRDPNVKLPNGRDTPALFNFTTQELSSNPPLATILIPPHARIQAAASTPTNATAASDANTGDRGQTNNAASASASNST
# Source text: • Mice. Swiss Webster pregnant female mice were purchased from Taconic (Hudson, N.Y.). • Cell Culture. AHPs were kindly provided by Dr. Gage (Lie, D. C. et al. Wnt signaling to regulates adult hippocampal neurogenesis. Nature 437, 1370-5 (2005)) and cultured under conditions described previously (Palmer, T. D., Takahashi, J. & Gage, F. H. The adult rat hippocampus contains primordial neural stem cells. Mol Cell Neurosci 8, 389-404 (1997)). Primary neural progenitors were isolated from E14 mouse embryos and cultured as described previously (Sanada, K. & Tsai, L. H. G protein betagamma subunits and AGS3 control spindle orientation and asymmetric cell fate of cerebral cortical progenitors. Cell 122, 119-31 (2005)). N2a and 293T cells were cultured in DMEM medium containing 10% FBS, L-glutamine, and penicillin/streptomycin. Wnt3a expressing L cells and untransfected L cells were obtained from ATCC (Manassas, Va.). Wnt3a conditional medium was produced according to the ATCC protocol. To induce AHP differentiation, FGF2 was removed from the culture medium and 1 μM retinoic acid/1% FBS was added to the medium for 4 days. • Reagents. Recombinant Wnt3a protein was obtained from Chemicon (Rosemont, Ill.). FGF2 was obtained from PeproTech (Rocky Hill, N.J.). Recombinant GST-GSK3β was obtained from Active Motif (Carlsbad, Calif.). Recombinant GST-β-catenin and GST-axin were obtained from Millipore (Billerica, Mass.). The GSK313 inhibitor, SB-216763, AR-A104418 and His-GSK3β, were obtained from Sigma-Aldrich (Sigma-Aldrich, St. Louis, Mo.). L803-MTS was obtained from Calbiochem (San Diego, Calif.). GST-AKT1 was obtained from Cell Signaling (Beverly, Mass.). GST-CASK-1 (CASK fragment from 316-415aa), GST-CASK-2 (CASK fragment from 777-974aa), and GST-p25 proteins were kindly provided by Dr. B. A. Samuels. Mouse DISC1 peptidel (40-78aa: GYMRSTAGSG IGFLSPAVGMPHPSSAG LTGQQSQHSQS; SEQ ID NO: 1) and Mouse DISC1 peptide 2 (195-238aa, […] GERGEAEGCLPSREAE; SEQ ID NO: 2) were synthesized by Chi Scientific (Maynard, Mass.). • Antibodies. The primary antibodies used in this study were the following: rabbit anti-DISC1 C-terminal antibody, mouse and rabbit anti-GFP antibodies (Invitrogen, Carlsbad, Calif.); affinity purified rabbit anti-DISC1 antibody (Novus, Littleton, Colo.) for immunohistochemistry; mouse anti-FLAG and mouse anti-Actin antibody; mouse anti-GSK3β antibody, mouse anti-β-catenin antibody, mouse anti-pY216 GSK3β antibody, and mouse anti-nestin antibody (BD Biosciences, San Diego, Calif.); rabbit anti-[…] β-catenin antibody, rabbit anti-pS9 GSK3β antibody, and mouse anti-cyclin to D1 antibody (Cell Signaling); mouse anti-Dv12 antibody, mouse anti-HA antibody, mouse anti-GST antibody, mouse anti-ubiquitin antibody, and rabbit anti-β-catenin antibody (Santa Cruz, Santa Cruz, Calif.); mouse Tuj-1 antibody (BABCO, Harrisburg, Pa.); mouse anti-BrdU antibody (DakoCytomation, Glostrup, Denmark); guinea pig anti-doublecortin antibody (Chemicon, Rosemont, Ill.); chicken anti-GFP antibody (Ayes Labs, Tigard, Oreg.); rabbit anti-pS10 Histone H3 antibody (Upstate, Lake Placid, N.Y.). • Constructs. The sequences for shRNAs targeting DISC1 are as follows: control shRNA: 5′-CGGCTGAAACAAGAGTTGG-3′ (SEQ ID NO:3); DISC1 shRNA-1: 5′-GGCAAACACTGTGA AGT GC-3′ (SEQ ID NO:4); DISC1 shRNA-2: 5′-[…]-3′ (SEQ ID NO:5)(Kamiya A. et al. A schizophrenia-associated mutation of DISC1 perturbs cerebral cortex development. Nat. Cell Biol 7, 1167-78 (2005)). DISC1 shRNA-1 recognizes both rat and mouse DISC1. […]
# His-GSK3β = target: T2, His-GSK3β (Homo sapiens, UniProt P49841); assay: In vitro association (GST pull-down) with purified His-GSK3β; assay type: binding; conditions: GST-tagged DISC1 fragments, in vitro association assay
# T2 construct: purchased Sigma-Aldrich (St. Louis, Mo.)
# T2 sequence (P49841 whole entry, the tested form may be a part): as above
# Source text: (§1) • Mice. Swiss Webster pregnant female mice were purchased from Taconic (Hudson, N.Y.). • Cell Culture. AHPs were kindly provided by Dr. Gage (Lie, D. C. et al. Wnt signaling to regulates adult hippocampal neurogenesis. Nature 437, 1370-5 (2005)) and cultured under conditions described previously (Palmer, T. D., Takahashi, J. & Gage, F. H. The adult rat hippocampus contains primordial neural stem cells. Mol Cell Neurosci 8, 389-404 (1997)). Primary neural progenitors were isolated from E14 mouse embryos and cultured as described previously (Sanada, K. & Tsai, L. H. G protein betagamma subunits and AGS3 control spindle orientation and asymmetric cell fate of cerebral cortical progenitors. Cell 122, 119-31 (2005)). N2a and 293T cells were cultured in DMEM medium containing 10% FBS, L-glutamine, and penicillin/streptomycin. Wnt3a expressing L cells and untransfected L cells were obtained from ATCC (Manassas, Va.). Wnt3a conditional medium was produced according to the ATCC protocol. To induce AHP differentiation, FGF2 was removed from the culture medium and 1 μM retinoic acid/1% FBS was added to the medium for 4 days. • Reagents. Recombinant Wnt3a protein was obtained from Chemicon (Rosemont, Ill.). FGF2 was obtained from PeproTech (Rocky Hill, N.J.). Recombinant GST-GSK3β was obtained from Active Motif (Carlsbad, Calif.). […]
# [1] = system: adult hippocampal progenitor (AHP) cells; assay: AHP cell proliferation, BrdU labeling and mitotic index; assay type: cell-based; conditions: Wnt3a 200 ng/ml
# Source text: as §1
Molecule,"inhibition of β-catenin, axin and GSK3β phosphorylation (GSK3β; GST fusion proteins at 0.5 μM)",inhibition of GSK3β Y216 phosphorylation (GSK3β; at 0.1 μM),inhibition of GSK3β Y216 phosphorylation (GSK3β; at 1 μM),inhibition of GSK3β activity by DISC1 fragments (GSK3β),interaction with purified His-GSK3β (His-GSK3β),inhibition of GSK3β autophosphorylation (Y216) (GSK3β; GST-DISC1 fragments at 2 μM),proliferation of AHPs [1]
"DISC1 fragment 1-220: GST-tagged mouse DISC1 protein fragment, amino acids 1-220 (protein, left off: a dimerising Fc or GST) MQGGGPRGAPIHSPSHGADSGHGLPPAVAPQRRRLTRRPGYMRSTAGSGIGFLSPAVGMPHPSSAGLTGQQSQHSQSKAGQCGLDPGSHCQASLVGKPFLKSSLVPAVASEGHLHPAQRSMRKRPVHFAVHSKNDSRQSERLTGSFKPGDSGFWQELLSSDSFKSLAPSLDAPWNKGSRGLKTVKPLASPALNGPADIASLPGFQDTFTSSFSFIQLSLG","potently inhibited β-catenin, axin and GSK3β phosphorylation",no inhibition,plateaued,able to inhibit GSK3 activity; also recorded: most potent in inhibiting GSK3 activity; also recorded: most potent inhibitory activity on GSK3β; also recorded: dose-dependent,strong interactions; also recorded: directly associate with purified GSK3β; also recorded: interacts directly,–,–
"DISC1 fragment 356-595: GST-tagged mouse DISC1 protein fragment, amino acids 356-595 (protein, UniProt Q811T9 356-595, looked up, fragment, GST tag) LKLQKCQEKVVEDGDYDTAETLRQRLEELEQEKGRLSWALPSQQPALRSFLGYLAAQIQVALHGATQRAGSDDPEAPLEGQLRTTAQDSLPASITRRDWLIREKQRLQKEIEALQARMSALEAKEKRLSQELEEQEVLLRWPGCDLMALVAQMSPGQLQEVSKALGETLTSANQAPFQVEPPETLRSLRERTKSLNLAVRELTAQVCSGEKLCSSLRRRLSDLDTRLPALLEAKMLALSG",–,–,–,able to inhibit GSK3 activity,strong interactions; also recorded: directly associate with purified GSK3β; also recorded: interacts directly,started to inhibit GSK3β autophosphorylation,–
"Wnt3a: Recombinant Wnt3a protein obtained from Chemicon (protein, UniProt P56704 19-352, looked up) Protein Wnt-3a: SYPIWWSLAVGPQYSSLGSQPILCASIPGLVPKQLRFCRNYVEIMPSVAEGIKIGIQECQHQFRGRRWNCTTVHDSLAIFGPVLDKATRESAFVHAIASAGVAFAVTRSCAEGTAAICGCSSRHQGSPGKGWKWGGCSEDIEFGGMVSREFADARENRPDARSAMNRHNNEAGRQAIASHMHLKCKCHGLSGSCEVKTCWWSQPDFRAIGDFLKDKYDSASEMVVEKHRESRGWVETLRPRYTYFKVPTERDLVYYEASPNFCEPNPETGSFGTRDRTCNVSSHGIDGCDLLCCGRGHNARAERRREKCRCVFHWCCYVSCQECTRVYDVHTCK",–,–,–,–,–,–,significantly stimulated proliferation of AHPs
